This sample holds only a part of the variants without activity.

The text below walks through data of the RNAGym collection of RNA variant scans (doi:10.1073/pnas.2313332121).

The chains are these.
B1: TPR 5TU (parent)
chain: GGAUCUUCUCGAUCUAACAAAAAAGACAAAUCUGCCACAAAGCUUGAGAGCAUCUUCGGAUGCAGAGGCGGCAGCCUUCGGUGGCGCGAUAGCGCCAACGUUCUCAACUAUGACACGCAAAACGCGUGCUCCGUUGAAUGGAGUUUAUCAUG

The variants in the data set derive from B1. As to the kind of experiment: polymerase ribozyme fitness, log enrichment relative to wild type (log ratio); higher = more active; in vitro selection for triplet polymerase activity. In short, it runs like this: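 Mutant libraries of both subunits of a heterodimeric triplet polymerase ribozyme were PCR-built, transcribed, and selected once in triplicate, with frozen incubation at −7 °C and capture of gel-excised extended constructs on streptavidin beads before RT-PCR. Illumina sequencing of input and output libraries was filtered to genotypes with ≥10 input reads and ≥1 read per output. Fitness is the logarithm of genotype enrichment over wild-type enrichment, using inverse-variance-weighted replicate averages. The logarithm is base 2.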
As to C76A C87U G92A, the “polymerase ribozyme fitness (log ratio)” value is -2.16. Turning to G74A A91C A115U G141A A147C U148G, the “polymerase ribozyme fitness (log ratio)” value was no more than -4.2. With C75U A142C, the “polymerase ribozyme fitness (log ratio)” value was -1.32.

Regarding C76A A137G, the “polymerase ribozyme fitness (log ratio)” value is -1.07. Under G80A G92C stands -0.857; under G80A G92U, -3.2. The result for G81A C87U reads -1.73; that for C76A A98U G136A U145A, 0.194. With C76U C85U A138C U144A, the “polymerase ribozyme fitness (log ratio)” value was no more than -4.2.

G83A U90C: the “polymerase ribozyme fitness (log ratio)” value was -3.51. As to G81C U102C A147G, the “polymerase ribozyme fitness (log ratio)” value is -3.21. With C75U G136A, the “polymerase ribozyme fitness (log ratio)” value was determined as 1.26. For A73U C75A G92A, the “polymerase ribozyme fitness (log ratio)” value is no more than -4.2. For C79A G84A A120U U127C U144C, the “polymerase ribozyme fitness (log ratio)” value was no more than -4.2.

For G80A A142U U144C, the “polymerase ribozyme fitness (log ratio)” value is -3.55.

On to G80A A91C A120G, for which the “polymerase ribozyme fitness (log ratio)” value was no more than -4.2. Under C76A U82G U146A stands -0.356.

With C75A C87A G88A, the “polymerase ribozyme fitness (log ratio)” value is no more than -4.2. The result for C76G C96A U104G G112C reads no more than -4.2; that for C76A U82G, -1.94. Consider A73U G84A, for which the “polymerase ribozyme fitness (log ratio)” value was -2.32. Under A73U C85U C103G C105G C116U A142G stands no more than -4.2. For the variant G74C C99U A142U U146A, the “polymerase ribozyme fitness (log ratio)” value is no more than -4.2. The result for C76U C87U C116A A122U U146G reads -3.7; that for G80U U82C, -1.68; that for G83U A89G C95U C103G, no more than -4.2. The result for G81A A106U reads -1.09; that for U82C U104G G117U, 0.147; that for C76U C87A A91G A107U G126A U145A, no more than -4.2. In the case of G83C U101C A119G A122U U135C U145A, the “polymerase ribozyme fitness (log ratio)” value is -3.51. Under C76A A91C G128C G143A stands no more than -4.2; under G74U C96A C118U, -3.97.

Consider G81A A97G C125U, for which the “polymerase ribozyme fitness (log ratio)” value was -0.572. The result for G81U A97U C105U reads 0.976; that for C76A A107G U145C, no more than -4.2. Take U78C A120U G133U G141A: the “polymerase ribozyme fitness (log ratio)” value is -3.21. Under G80A G84A C116A U135G stands no more than -4.2.

With G81C G84A A115C G133U C149U, the “polymerase ribozyme fitness (log ratio)” value was no more than -4.2. Under C76U C99G stands -0.789. Under G81C A119U G128U stands -2.99; under G83A A89G U109G U130G C132G, no more than -4.2. Under G83A C132G G133C stands -2.67; under C76U C87U U102C, -1.82; under G74A A115C, -3.73. Take U82C C96G A120U U127G: the “polymerase ribozyme fitness (log ratio)” value is -2.72. Under A73U C87U G92A stands 0.224; under G83C C95U G126A, -2.05. Under C75G C93A A113U A142G stands -4.17. Under U77A U134G stands no more than -4.2. As to U82G G143A, the “polymerase ribozyme fitness (log ratio)” value was -0.245. Under G81C G94A stands -0.416; under A73U G83U A122C U127A, no more than -4.2. Under U82C G112U G152A stands -3.59; under G80A G126A, -0.283; under G74C C116G A150U, no more than -4.2. Under U78C G84A G136U stands -3.14; under G83C A98G, -3.71; under U77C C116U, -3.64. Consider G81A G92A U101A, for which the “polymerase ribozyme fitness (log ratio)” value was -3.21. Under G74C G81C stands -3.94; under C75U C95U C96U, -0.218. The result for U77G G84C U148G reads no more than -4.2; that for C76U A119C C123U, 0.258. Under G80A A98C stands -2.19; under G81A C105G A121U, -1.1; under G80U C108G, no more than -4.2. Turning to U82A C118U, the “polymerase ribozyme fitness (log ratio)” value is -0.0134. The result for C76U U77G G81U G92A C123A reads no more than -4.2; that for C79G C85A A138G U148A, no more than -4.2; that for C76A A89U G141U, -2.94. For G83A A115U, the “polymerase ribozyme fitness (log ratio)” value was -1.25. The result for G74C A147C reads -4.06; that for G81A U144C, -1.41; that for C79U A98G, -3.44.

As for C76A G140C, the “polymerase ribozyme fitness (log ratio)” value is -3.36. The result for G81A G133C reads -3.84; that for G81A G133U, -3.84; that for U77G C79G G83C, no more than -4.2. Under C76A A121G stands 0.0173.

Consider G83A U104G A120G, for which the “polymerase ribozyme fitness (log ratio)” value was -1.21. Under A73U G83C C123G stands -2.93. Under C76U C87U stands -0.242; under U82C A115G A138U, -4.19.
